Measured values taken from article PMC3079584, “A Cytoplasmic Complex Mediates Specific mRNA Recognition and Localization in Yeast”.

Assays:
She2p [1] = molecular target: T1, She2p (Saccharomyces cerevisiae, UniProt P36068 1-246); assay: filter binding; range over three control RNAs; EMSA: 20 mM HEPES pH 7.8, 200 mM NaCl, 2 mM MgCl2, 2 mM DTT, 4% glycerol, 30 or 100 ug/ml yeast tRNA, 5 nM RNA, 20 C; filter binding: 20 mM HEPES pH 7.4-7.5 (7.9 with She3p), 150 mM NaCl, 2 mM MgCl2, 2 mM DTT, 30 ug/ml yeast tRNA, 0.5 nM RNA; pull-down: HNMD buffer, 4 C; conditions: protein: recombinant; tags: GST tag (PreScission-cleaved); chain copies: 4; label: 32P; hairpin
She3p [2] = molecular target: T2, She3p (Saccharomyces cerevisiae, UniProt P38272 1-425); assay: EMSA; subtle shift at 25 nM She3p; EMSA: 20 mM HEPES pH 7.8, 200 mM NaCl, 2 mM MgCl2, 2 mM DTT, 4% glycerol, 30 or 100 ug/ml yeast tRNA, 5 nM RNA, 20 C; filter binding: 20 mM HEPES pH 7.4-7.5 (7.9 with She3p), 150 mM NaCl, 2 mM MgCl2, 2 mM DTT, 30 ug/ml yeast tRNA, 0.5 nM RNA; pull-down: HNMD buffer, 4 C; conditions: protein: recombinant; tags: C-terminal His6; label: 32P; stem-loop
T2 sequence: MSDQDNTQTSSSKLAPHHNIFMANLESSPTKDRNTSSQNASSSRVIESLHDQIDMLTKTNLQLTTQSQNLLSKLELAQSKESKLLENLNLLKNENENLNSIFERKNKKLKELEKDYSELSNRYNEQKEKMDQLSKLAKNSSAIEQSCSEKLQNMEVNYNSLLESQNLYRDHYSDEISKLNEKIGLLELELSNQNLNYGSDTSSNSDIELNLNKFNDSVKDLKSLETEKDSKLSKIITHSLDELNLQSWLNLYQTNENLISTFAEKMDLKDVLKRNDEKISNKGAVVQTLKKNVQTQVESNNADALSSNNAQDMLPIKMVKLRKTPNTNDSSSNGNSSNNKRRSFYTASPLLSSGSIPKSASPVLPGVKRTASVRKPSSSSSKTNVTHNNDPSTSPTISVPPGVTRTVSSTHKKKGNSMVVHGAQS

She2p;She3p [3] = molecular target: T3, She2p;She3p (Saccharomyces cerevisiae;Saccharomyces …, UniProt P36068;P38272 1-246;1-425, |); assay: EMSA; She3p constant 25 nM, She2p varied; EMSA: 20 mM HEPES pH 7.8, 200 mM NaCl, 2 mM MgCl2, 2 mM DTT, 4% glycerol, 30 or 100 ug/ml yeast tRNA, 5 nM RNA, 20 C; filter binding: 20 mM HEPES pH 7.4-7.5 (7.9 with She3p), 150 mM NaCl, 2 mM MgCl2, 2 mM DTT, 30 ug/ml yeast tRNA, 0.5 nM RNA; pull-down: HNMD buffer, 4 C; conditions: protein: recombinant;recombinant; tags: GST tag (PreScission-cleaved);C-terminal His6; chain copies: 4;2; label: 32P; stem-loop
Target sequence in this assay (P36068 whole entry, one chain of several): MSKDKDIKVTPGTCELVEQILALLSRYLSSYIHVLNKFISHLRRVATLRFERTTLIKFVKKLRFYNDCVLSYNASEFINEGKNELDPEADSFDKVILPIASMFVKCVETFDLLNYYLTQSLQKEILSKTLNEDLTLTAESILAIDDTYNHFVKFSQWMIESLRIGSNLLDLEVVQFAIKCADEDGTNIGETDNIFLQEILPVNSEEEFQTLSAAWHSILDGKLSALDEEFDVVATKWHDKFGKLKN

She3p [4] = molecular target: T2, She3p; assay: EMSA; EMSA: 20 mM HEPES pH 7.8, 200 mM NaCl, 2 mM MgCl2, 2 mM DTT, 4% glycerol, 30 or 100 ug/ml yeast tRNA, 5 nM RNA, 20 C; filter binding: 20 mM HEPES pH 7.4-7.5 (7.9 with She3p), 150 mM NaCl, 2 mM MgCl2, 2 mM DTT, 30 ug/ml yeast tRNA, 0.5 nM RNA; pull-down: HNMD buffer, 4 C; conditions: protein: recombinant; tags: C-terminal His6; label: 32P; stem-loop
Puf6p = Puf6p (Saccharomyces cerevisiae, UniProt Q04373 2-656); assay: as above; conditions: protein: recombinant, tags: GST tag (cleaved for EMSA; retained in GST pull-downs), label: 32P
She3p [5] = molecular target: T2, She3p; assay: UV cross-linking; EMSA: 20 mM HEPES pH 7.8, 200 mM NaCl, 2 mM MgCl2, 2 mM DTT, 4% glycerol, 30 or 100 ug/ml yeast tRNA, 5 nM RNA, 20 C; filter binding: 20 mM HEPES pH 7.4-7.5 (7.9 with She3p), 150 mM NaCl, 2 mM MgCl2, 2 mM DTT, 30 ug/ml yeast tRNA, 0.5 nM RNA; pull-down: HNMD buffer, 4 C; conditions: protein: recombinant; tags: C-terminal His6; label: 32P; stem-loop
She2p [6] = molecular target: T1, She2p; assay: as above; conditions: protein: recombinant; tags: GST tag (PreScission-cleaved); chain copies: 4; label: 32P; stem-loop
She2p;She3p [7] = molecular target: T3, She2p;She3p; assay: EMSA; She3p constant 25 nM; Kd stated as in similar range; EMSA: 20 mM HEPES pH 7.8, 200 mM NaCl, 2 mM MgCl2, 2 mM DTT, 4% glycerol, 30 or 100 ug/ml yeast tRNA, 5 nM RNA, 20 C; filter binding: 20 mM HEPES pH 7.4-7.5 (7.9 with She3p), 150 mM NaCl, 2 mM MgCl2, 2 mM DTT, 30 ug/ml yeast tRNA, 0.5 nM RNA; pull-down: HNMD buffer, 4 C; conditions: protein: recombinant;recombinant; tags: GST tag (PreScission-cleaved);C-terminal His6; chain copies: 4;2; label: 32P; stem-loop
Target sequence in this assay (P36068 whole entry, chain 1 of 2, one chain of several): as the sequence (P36068 whole entry, one chain of several) above

She2p (ΔC);She3p = She2p (ΔC);She3p (Saccharomyces cerevisiae;Saccharomyces …, UniProt P36068;P38272 1-240;1-425, |); assay: size-exclusion chromatography; EMSA: 20 mM HEPES pH 7.8, 200 mM NaCl, 2 mM MgCl2, 2 mM DTT, 4% glycerol, 30 or 100 ug/ml yeast tRNA, 5 nM RNA, 20 C; filter binding: 20 mM HEPES pH 7.4-7.5 (7.9 with She3p), 150 mM NaCl, 2 mM MgCl2, 2 mM DTT, 30 ug/ml yeast tRNA, 0.5 nM RNA; pull-down: HNMD buffer, 4 C; conditions: protein: recombinant;recombinant; tags: GST tag (PreScission-cleaved);C-terminal His6; stem-loop
Puf6p;She2p = Puf6p;She2p (Saccharomyces cerevisiae;Saccharomyces …, UniProt Q04373;P36068 2-656;1-246, |); assay: pull-down; GST-Puf6p immobilized; EMSA: 20 mM HEPES pH 7.8, 200 mM NaCl, 2 mM MgCl2, 2 mM DTT, 4% glycerol, 30 or 100 ug/ml yeast tRNA, 5 nM RNA, 20 C; filter binding: 20 mM HEPES pH 7.4-7.5 (7.9 with She3p), 150 mM NaCl, 2 mM MgCl2, 2 mM DTT, 30 ug/ml yeast tRNA, 0.5 nM RNA; pull-down: HNMD buffer, 4 C; conditions: protein: recombinant;recombinant; tags: GST tag (cleaved for EMSA; retained in GST pull-downs);GST tag (PreScission-cleaved); copies: 1;4; stem-loop
She2p;She3p [8] = molecular target: T3, She2p;She3p; assay: size-exclusion chromatography; pull-down; EMSA: 20 mM HEPES pH 7.8, 200 mM NaCl, 2 mM MgCl2, 2 mM DTT, 4% glycerol, 30 or 100 ug/ml yeast tRNA, 5 nM RNA, 20 C; filter binding: 20 mM HEPES pH 7.4-7.5 (7.9 with She3p), 150 mM NaCl, 2 mM MgCl2, 2 mM DTT, 30 ug/ml yeast tRNA, 0.5 nM RNA; pull-down: HNMD buffer, 4 C; conditions: protein: recombinant;recombinant; tags: GST tag (PreScission-cleaved);C-terminal His6; chain copies: 4;2; stem-loop
Target sequence in this assay (P36068 whole entry, one chain of several): as above

Puf6p;She2p;She3p = Puf6p;She2p;She3p (Saccharomyces cerevisiae;Saccharomyces …, UniProt Q04373;P36068;P38272 2-656;1-246;1-425, ||); assay: pull-down; His-She3p or GST-Puf6p immobilized; EMSA: 20 mM HEPES pH 7.8, 200 mM NaCl, 2 mM MgCl2, 2 mM DTT, 4% glycerol, 30 or 100 ug/ml yeast tRNA, 5 nM RNA, 20 C; filter binding: 20 mM HEPES pH 7.4-7.5 (7.9 with She3p), 150 mM NaCl, 2 mM MgCl2, 2 mM DTT, 30 ug/ml yeast tRNA, 0.5 nM RNA; pull-down: HNMD buffer, 4 C; conditions: protein: recombinant;recombinant;recombinant; tags: GST tag (cleaved for EMSA; retained in GST pull-downs);GST tag (PreScission-cleaved);C-terminal His6; stem-loop
She2p (ΔhE) = She2p (ΔhE) (Saccharomyces cerevisiae, UniProt P36068 1-246, del174-183); assay: size-exclusion chromatography; binary co-complex; EMSA: 20 mM HEPES pH 7.8, 200 mM NaCl, 2 mM MgCl2, 2 mM DTT, 4% glycerol, 30 or 100 ug/ml yeast tRNA, 5 nM RNA, 20 C; filter binding: 20 mM HEPES pH 7.4-7.5 (7.9 with She3p), 150 mM NaCl, 2 mM MgCl2, 2 mM DTT, 30 ug/ml yeast tRNA, 0.5 nM RNA; pull-down: HNMD buffer, 4 C; conditions: protein: recombinant; tags: GST tag (PreScission-cleaved); chain copies: 2; stem-loop
She2p (ΔhE), sequence (P36068 other isoform, or with tags, fused parts or gaps del174-183 | mutant): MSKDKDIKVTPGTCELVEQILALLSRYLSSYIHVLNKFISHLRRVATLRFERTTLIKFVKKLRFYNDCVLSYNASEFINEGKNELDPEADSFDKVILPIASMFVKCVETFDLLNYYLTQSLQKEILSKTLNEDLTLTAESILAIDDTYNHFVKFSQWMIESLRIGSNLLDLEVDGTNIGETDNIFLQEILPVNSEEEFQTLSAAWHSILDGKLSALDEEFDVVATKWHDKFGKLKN

T1 sequence (P36068 whole entry): as the sequence (P36068 whole entry, one chain of several) above
Puf6p, sequence (Q04373 2-656): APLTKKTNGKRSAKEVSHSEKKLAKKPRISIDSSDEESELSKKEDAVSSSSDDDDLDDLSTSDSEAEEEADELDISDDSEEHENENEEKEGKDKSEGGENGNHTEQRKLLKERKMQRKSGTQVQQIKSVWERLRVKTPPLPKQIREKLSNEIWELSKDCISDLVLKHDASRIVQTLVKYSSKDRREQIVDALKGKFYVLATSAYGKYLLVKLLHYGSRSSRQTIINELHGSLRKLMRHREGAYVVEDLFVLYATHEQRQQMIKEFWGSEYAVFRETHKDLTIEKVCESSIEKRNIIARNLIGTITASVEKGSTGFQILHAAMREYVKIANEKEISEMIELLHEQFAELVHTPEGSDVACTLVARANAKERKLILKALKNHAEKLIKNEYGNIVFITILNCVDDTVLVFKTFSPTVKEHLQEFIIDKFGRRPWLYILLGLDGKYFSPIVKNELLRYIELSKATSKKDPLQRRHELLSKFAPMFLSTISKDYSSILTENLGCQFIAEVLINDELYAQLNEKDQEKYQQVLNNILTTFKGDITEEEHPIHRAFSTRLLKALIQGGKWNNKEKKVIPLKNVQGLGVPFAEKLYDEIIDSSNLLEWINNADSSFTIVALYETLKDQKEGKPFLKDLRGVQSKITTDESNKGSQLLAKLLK
She2p (ΔC);She3p, sequence (P36068 1-240, stated change not applied, one chain of several): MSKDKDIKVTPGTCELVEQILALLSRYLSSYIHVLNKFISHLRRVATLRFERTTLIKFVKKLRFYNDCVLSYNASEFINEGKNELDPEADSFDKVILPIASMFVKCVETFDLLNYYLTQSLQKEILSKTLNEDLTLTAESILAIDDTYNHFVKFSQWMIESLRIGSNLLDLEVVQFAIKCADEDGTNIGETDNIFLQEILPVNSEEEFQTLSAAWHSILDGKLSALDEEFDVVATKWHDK
Puf6p;She2p;She3p, sequence (Q04373 2-656, chain 1 of 2): as the sequence (Q04373 2-656) above
Puf6p;She2p;She3p, sequence (P36068 whole entry, chain 2 of 2): as the sequence (P36068 whole entry, one chain of several) above
Puf6p;She2p, sequence (Q04373 2-656, chain 1 of 2): as the sequence (Q04373 2-656) above
Puf6p;She2p, sequence (P36068 whole entry, chain 2 of 2): as the sequence (P36068 whole entry, one chain of several) above

CGAGCCUGGGAGCUCG (structured_RNA) [HIV-1 TAR (16 bases)]
Kd (She2p [1]): ~1330 nM

B1: ASH1 E2A (structured_RNA)
RNA: UUGCGAAUAGAGACAUUCUAUCGAACAAUUCCAAAUCUAAUGUAAGGAAACCAUCUAAGAACAAAAUCUCAAAGCAA
binding result (She3p [2]): binds
Kd (She2p;She3p [3]): ~25 nM

B2: ASH1 E1 (structured_RNA)
RNA: AAGACUAUGUUAAAAUACGCGAAGAAGUGGCUCAUUUCAAGCCAUUAAGUAUACCCAACUUAACUAAUAAUCAAAAUAA
binding result (She3p [2]): binds
Kd (She2p;She3p [3]): ~25 nM

CGAAGAUGAAAAUGAUCACGAGAGAGAUCCCGAACAAUUUUCAGAAUUUG (structured_RNA) [EAR1 zip code]
binding result (She3p [4]): binds
binding result (Puf6p; stem-loop): binds
Kd (She2p;She3p [3]): ~25 nM

B3: ASH1 E2B (domain 1) (structured_RNA)
RNA: AUCUUCAUCUCCAUCUCCCUCCACACCGACGAAAAGUGGCAAGAUGAGAUCAAGAUCA
Kd (She2p;She3p [3]): ~25 nM

UUAUCCAUUGCACUCCGGAUGU (structured_RNA) [U1 snRNA hairpin II]
Kd (She2p [1]): ~1330 nM

B4: Poly(A)60 (ssRNA)
RNA: AAAAAAAAAAAAAAAAAAAAAAAAAAAAAAAAAAAAAAAAAAAAAAAAAAAAAAAAAAAA
binding result (Puf6p): binds

B5: ASH1 E3-51 (structured_RNA)
RNA: AUGGAUAACUGAAUCUCUUUCAACUAAUAAGAGACAUUAUCACGAAACAAU
binding result (She3p [5]): binds
binding result (She2p [6]): binds
Kd (She2p;She3p [7]): ~25 nM

B6: E3-118-tRNA (structured_RNA)
RNA: GGCUACGUAGCUCAGUUGGUUAGAGCAGCGGCCGGAGACAGUAGAGAAUUGAUACAUGGAUAACUGAAUCUCUUUCAACUAAUAAGAGACAUUAUCACGAAACAAUUGUACAUUUCUCUCCUUGUCUGUGCUAAAUAAACUACAAAUAAAAACCGCGGGUCACAGGUUCGAAUCCCGUCGUAGCCACCA
binding result (She2p (ΔC);She3p): binds
binding result (Puf6p;She2p): binds
binding result (She2p;She3p [8]): binds
binding result (Puf6p;She2p;She3p): binds
binding result (She2p (ΔhE)): binds

B7: HIV-1 TAR (57 bases) (structured_RNA)
RNA: GGUCUCUCUGGUUAGACCAGAUCUGAGCCUGGGAGCUCUCUGGCUAACUAGGGAACC
Kd (She2p [1]): ~1330 nM
